In patent publication US20190241895:

Tested on: secretory immunoglobulin A (sIgA) (Homo sapiens)
Test: SPR
[1] = KS9 (adenine-residue-modified T) at the T after GCAATCTCCCTAATC, 3' poly(dA)20 added for SPR, SPR buffer 1 mM MgCl2 pH 7.4
[2] = NG7 (guanine-residue-modified T) at underlined T i.e. T after GCAATCTCCCTAATC, 3' poly(dA)20 added for SPR, SPR buffer 1 mM MgCl2 pH 7.4
[3] = KS9 (adenine-residue-modified T) at T after the 5' primer region GGTTTGGACGCAATCTCCCTAATC, 3' poly(dA)20 added for SPR, SPR buffer 1 mM MgCl2 pH 7.4
[4] = MK4 (adenine-residue-modified dA) at A after the 5' primer region GGTTTGGACGCAATCTCCCTAATC, 3' poly(dT)20 added for SPR, SPR buffer 1 mM MgCl2 pH 7.4
[5] = NG7 (guanine-residue-modified T) at T after the 5' primer region GGTTTGGACGCAATCTCCCTAATC, 3' poly(dA)20 added for SPR, SPR buffer 1 mM MgCl2 pH 7.4

“GCAATCTCCCTAATCAAAGATATGCTAAGATAGATAGTTTGGCTTG [KS9 aptamer SEQ 19]” was tested, and the Kd [1] was 8 nM.

In the case of “GCAATCTCCCTAATCGTATATCAAGCAGATGTGTTCACTTGGGGAG [KS9 aptamer SEQ 17]”, the Kd [1] is reported as 12.9 nM.

In the case of “GCAATCTCCCTAATCTGCTGATGTTTGTATTTCAAATTAGC [NG7 aptamer SEQ 15]”, the Kd [2] is reported as 2.59 nM.

“GCAATCTCCCTAATCTGCTGATGTTTGTATTTCAAATTAGCCGCAG [NG7 aptamer SEQ 14]” showed a Kd [2] of 10 nM.

For “GCAATCTCCCTAATCTTTATACGTATGGACTTAGGCTTTGTTATAGAAAC [KS9 aptamer SEQ 21]”, the Kd [1] was 2.1 nM.

Sequence “GGTTTGGACGCAATCTCCCTAATCAAAGATATGCTAAGATAGATAGTTTGGCTTGAAACTACAATGGGCGGGCTTATC [KS9 aptamer SEQ 9]” has a Kd [3] of 4.8 nM.

Sequence “GGTTTGGACGCAATCTCCCTAATCAAGCCACGGAGAGTCCGAGGTGACCATTAAGCAGGAAACTACAATGGGCGGGCTTA [MK4 aptamer SEQ 3]” has a Kd [4] of 7.6 nM.

“GGTTTGGACGCAATCTCCCTAATCACCTGTACTGGTTATTATGCCTGCCAACATGAAACTACAATGGGCGGGCTTATC [KS9 aptamer SEQ 10]” was tested, and the Kd [3] was 30.2 nM.

“GGTTTGGACGCAATCTCCCTAATCAGACAATATTAGAGTGTTACCACCTGTGATGAAACTACAATGGGCGGGCTTATC [NG7 aptamer SEQ 7]” was tested, and the Kd [5] was 37.7 nM.

“GGTTTGGACGCAATCTCCCTAATCAGATGATATCGAGATGCGAAGCGACCGCATGAAACTACAATGGGCGGGCTTATC [MK4 aptamer SEQ 2]” gave a Kd [4] of 7.6 nM.

With “GGTTTGGACGCAATCTCCCTAATCCTATCTGTTTTATCAATTGTAGCAAGTTATGAAACTACAATGGGCGGGCTTATC [KS9 aptamer SEQ 12]” the Kd [3] was 9 nM.

Work on “GGTTTGGACGCAATCTCCCTAATCGATCTAGATGGTCTCGGGTATGGCTAGATAGAAACTACAATGGGCGGGCTTATC [MK4 aptamer SEQ 4]” yielded a Kd [4] of 17.4 nM.

Sequence “GGTTTGGACGCAATCTCCCTAATCGTATATCAAGCAGATGTGTTCACTTGGGGAGAAACTACAATGGGCGGGCTTATC [KS9 aptamer SEQ 8]” has a Kd [3] of 10 nM.

“GGTTTGGACGCAATCTCCCTAATCTAAATAGATTTCACAGTGGATCCTTCAGAGGAAACTACAATGGGCGGGCTTATC [NG7 aptamer SEQ 6]” was tested, and the Kd [5] was 11.6 nM.

With “GGTTTGGACGCAATCTCCCTAATCTACTACGATATCCAGATGGGAAGTGACCGTGAAACTACAATGGGCGGGCTTATC [MK4 aptamer SEQ 1]” the Kd (MK4 (adenine-residue-modified dA) at A after the 5' primer region GGTTTGGACGCAATCTCCCTAATC, 3' poly(dT)20 added for SPR, 40 mM HEPES, 125 mM NaCl, 5 mM KCl, 1 mM MgCl2, 0.01% Tween 20, pH 7.4) was 8.6 nM.

With “GGTTTGGACGCAATCTCCCTAATCTGCTGATGTTTGTATTTCAAATTAGCCGCAGAAACTACAATGGGCGGGCTTATC [NG7 aptamer SEQ 5]” the Kd [5] was 11.8 nM.

Work on “GGTTTGGACGCAATCTCCCTAATCTTTATACGTATGGACTTAGGCTTTGTTATAGAAACTACAATGGGCGGGCTTATC [KS9 aptamer SEQ 11]” yielded a Kd [3] of 1.3 nM.
